Source: IntAct's records for PubMed 31515488

B1: TNF receptor-associated factor 2 (Homo sapiens), Q12933 (parent)
chain: MAAASVTPPGSLELLQPGFSKTLLGTKLEAKYLCSACRNVLRRPFQAQCGHRYCSFCLASILSSGPQNCAACVHEGIYEEGISILESSSAFPDNAARREVESLPAVCPSDGCTWKGTLKEYESCHEGRCPLMLTECPACKGLVRLGEKERHLEHECPERSLSCRHCRAPCCGADVKAHHEVCPKFPLTCDGCGKKKIPREKFQDHVKTCGKCRVPCRFHAIGCLETVEGEKQQEHEVQWLREHLAMLLSSVLEAKPLLGDQSHAGSELLQRCESLEKKTATFENIVCVLNREVERVAMTAEACSRQHRLDQDKIEALSSKVQQLERSIGLKDLAMADLEQKVLEMEASTYDGVFIWKISDFARKRQEAVAGRIPAIFSPAFYTSRYGYKMCLRIYLNGDGTGRGTHLSLFFVVMKGPNDALLRWPFNQKVTLMLLDQNNREHVIDAFRPDVTSSSFQRPVNDMNIASGCPLFCPVSKMEAKNSYVRDDAIFIKAIVDLTGL
partner: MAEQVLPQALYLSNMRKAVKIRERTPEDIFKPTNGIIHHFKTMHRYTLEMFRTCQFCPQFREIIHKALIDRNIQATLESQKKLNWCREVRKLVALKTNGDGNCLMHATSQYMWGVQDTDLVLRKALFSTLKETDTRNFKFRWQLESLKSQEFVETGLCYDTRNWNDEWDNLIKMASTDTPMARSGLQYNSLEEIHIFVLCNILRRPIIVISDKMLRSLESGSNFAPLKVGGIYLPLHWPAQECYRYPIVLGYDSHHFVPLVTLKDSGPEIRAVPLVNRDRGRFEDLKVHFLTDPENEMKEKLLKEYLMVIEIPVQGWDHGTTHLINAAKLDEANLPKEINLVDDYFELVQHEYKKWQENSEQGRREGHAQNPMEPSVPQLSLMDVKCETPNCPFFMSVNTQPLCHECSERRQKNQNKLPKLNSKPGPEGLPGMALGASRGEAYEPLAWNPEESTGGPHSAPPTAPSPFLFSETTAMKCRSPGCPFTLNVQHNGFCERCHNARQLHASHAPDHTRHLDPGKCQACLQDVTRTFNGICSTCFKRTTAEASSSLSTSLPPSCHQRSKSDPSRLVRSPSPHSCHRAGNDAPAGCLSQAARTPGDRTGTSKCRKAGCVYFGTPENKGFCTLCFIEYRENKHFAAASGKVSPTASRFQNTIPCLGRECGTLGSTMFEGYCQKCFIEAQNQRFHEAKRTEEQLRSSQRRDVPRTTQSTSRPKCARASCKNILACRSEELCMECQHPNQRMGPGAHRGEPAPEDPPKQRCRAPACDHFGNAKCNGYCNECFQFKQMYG
B2: Polymerase delta-interacting protein 3 (Homo sapiens), Q9BY77 (parent)
chain: MADISLDELIRKRGAAAKGRLNARPGVGGVRSRVGIQQGLLSQSTRTATFQQRFDARQKIGLSDARLKLGVKDAREKLLQKDARFRIKGKVQDAREMLNSRKQQTTVPQKPRQVADAREKISLKRSSPAAFINPPIGTVTPALKLTKTIQVPQQKAMAPLHPHPAGMRINVVNNHQAKQNLYDLDEDDDGIASVPTKQMKFAASGGFLHHMAGLSSSKLSMSKALPLTKVVQNDAYTAPALPSSIRTKALTNMSRTLVNKEEPPKELPAAEPVLSPLEGTKMTVNNLHPRVTEEDIVELFCVCGALKRARLVHPGVAEVVFVKKDDAITAYKKYNNRCLDGQPMKCNLHMNGNVITSDQPILLRLSDSPSMKKESELPRRVNSASSSNPPAEVDPDTILKALFKSSGASVTTQPTEFKIKL
partner: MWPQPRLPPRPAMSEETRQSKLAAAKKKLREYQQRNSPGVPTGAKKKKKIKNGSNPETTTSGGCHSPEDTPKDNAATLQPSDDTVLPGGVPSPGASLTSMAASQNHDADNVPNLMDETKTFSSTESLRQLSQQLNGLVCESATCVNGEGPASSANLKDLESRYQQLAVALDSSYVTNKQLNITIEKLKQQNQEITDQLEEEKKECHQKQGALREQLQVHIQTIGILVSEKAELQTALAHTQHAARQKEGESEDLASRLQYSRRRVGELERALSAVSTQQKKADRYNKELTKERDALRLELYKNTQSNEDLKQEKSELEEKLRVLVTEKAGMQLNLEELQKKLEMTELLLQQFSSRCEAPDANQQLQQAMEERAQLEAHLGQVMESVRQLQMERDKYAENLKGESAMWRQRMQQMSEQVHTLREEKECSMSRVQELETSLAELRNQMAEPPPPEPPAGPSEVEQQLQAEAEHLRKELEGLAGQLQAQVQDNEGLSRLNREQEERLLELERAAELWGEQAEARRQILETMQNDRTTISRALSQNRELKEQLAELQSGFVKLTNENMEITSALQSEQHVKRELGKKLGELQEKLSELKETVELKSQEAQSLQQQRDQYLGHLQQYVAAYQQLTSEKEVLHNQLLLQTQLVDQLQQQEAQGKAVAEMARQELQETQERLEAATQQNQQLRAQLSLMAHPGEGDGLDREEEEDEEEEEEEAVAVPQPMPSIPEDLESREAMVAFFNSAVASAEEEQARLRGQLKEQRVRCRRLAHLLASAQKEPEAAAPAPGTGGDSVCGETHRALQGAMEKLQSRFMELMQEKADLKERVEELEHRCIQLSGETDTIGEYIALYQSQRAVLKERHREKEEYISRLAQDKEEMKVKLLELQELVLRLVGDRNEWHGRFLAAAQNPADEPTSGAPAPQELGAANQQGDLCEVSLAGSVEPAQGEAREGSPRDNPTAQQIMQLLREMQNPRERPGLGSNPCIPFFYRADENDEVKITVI
B3: Cyclin-D1-binding protein 1 (Homo sapiens), O95273 (parent)
chain: MASATAPAAAVPTLASPLEQLRHLAEELRLLLPRVRVGEAQETTEEFNREMFWRRLNEAAVTVSREATTLTIVFSQLPLPSPQETQKFCEQVHAAIKAFIAVYYLLPKDQGITLRKLVRGATLDIVDGMAQLMEVLSVTPTQSPENNDLISYNSVWVACQQMPQIPRDNKAAALLMLTKNVDFVKDAHEEMEQAVEECDPYSGLLNDTEENNSDNHNHEDDVLGFPSNQDLYWSEDDQELIIPCLALVRASKACLKKIRMLVAENGKKDQVAQLDDIVDISDEISPSVDDLALSIYPPMCHLTVRINSAKLVSVLKKALEITKASHVTPQPEDSWIPLLINAIDHCMNRIKELTQSELEL
partner: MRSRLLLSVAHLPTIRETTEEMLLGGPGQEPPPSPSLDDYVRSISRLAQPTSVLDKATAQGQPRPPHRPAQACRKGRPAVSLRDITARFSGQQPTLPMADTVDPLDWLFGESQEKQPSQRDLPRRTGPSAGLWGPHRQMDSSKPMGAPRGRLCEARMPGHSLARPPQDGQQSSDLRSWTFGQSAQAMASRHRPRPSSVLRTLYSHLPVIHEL
B4: pre-mRNA splicing regulator USH1G (Homo sapiens), Q495M9 (parent)
chain: MNDQYHRAARDGYLELLKEATRKELNAPDEDGMTPTLWAAYHGNLESLRLIVSRGGDPDKCDIWGNTPLHLAASNGHLHCLSFLVSFGANIWCLDNDYHTPLDMAAMKGHMECVRYLDSIAAKQSSLNPKLVGKLKDKAFREAERRIRECAKLQRRHHERMERRYRRELAERSDTLSFSSLTSSTLSRRLQHLALGSHLPYSQATLHGTARGKTKMQKKLERRKQGGEGTFKVSEDGRKSARSLSGLQLGSDVMFVRQGTYANPKEWGRAPLRDMFLSDEDSVSRATLAAEPAHSEVSTDSGHDSLFTRPGLGTMVFRRNYLSSGLHGLGREDGGLDGVGAPRGRLQSSPSLDDDSLGSANSLQDRSCGEELPWDELDLGLDEDLEPETSPLETFLASLHMEDFAALLRQEKIDLEALMLCSDLDLRSISVPLGPRKKILGAVRRRRQAMERPPALEDTEL
partner: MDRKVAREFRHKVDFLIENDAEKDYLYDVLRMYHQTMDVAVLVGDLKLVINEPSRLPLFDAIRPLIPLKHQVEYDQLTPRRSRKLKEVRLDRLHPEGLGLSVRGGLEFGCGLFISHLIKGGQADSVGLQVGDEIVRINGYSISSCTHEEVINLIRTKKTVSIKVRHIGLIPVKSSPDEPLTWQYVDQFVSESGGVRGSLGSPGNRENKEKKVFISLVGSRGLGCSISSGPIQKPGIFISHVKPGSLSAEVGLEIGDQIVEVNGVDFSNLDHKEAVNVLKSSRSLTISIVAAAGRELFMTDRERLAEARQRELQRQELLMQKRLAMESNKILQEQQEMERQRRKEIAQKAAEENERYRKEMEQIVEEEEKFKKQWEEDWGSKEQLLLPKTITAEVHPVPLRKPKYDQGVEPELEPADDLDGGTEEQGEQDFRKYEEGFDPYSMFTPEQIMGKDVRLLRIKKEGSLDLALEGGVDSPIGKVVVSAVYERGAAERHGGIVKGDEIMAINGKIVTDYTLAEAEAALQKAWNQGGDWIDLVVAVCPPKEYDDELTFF
B5: Peroxisomal bifunctional enzyme (Homo sapiens), Q08426 (parent)
chain: MAEYTRLHNALALIRLRNPPVNAISTTLLRDIKEGLQKAVIDHTIKAIVICGAEGKFSAGADIRGFSAPRTFGLTLGHVVDEIQRNEKPVVAAIQGMAFGGGLELALGCHYRIAHAEAQVGLPEVTLGLLPGARGTQLLPRLTGVPAALDLITSGRRILADEALKLGILDKVVNSDPVEEAIRFAQRVSDQPLESRRLCNKPIQSLPNMDSIFSEALLKMRRQHPGCLAQEACVRAVQAAVQYPYEVGIKKEEELFLYLLQSGQARALQYAFFAERKANKWSTPSGASWKTASARPVSSVGVVGLGTMGRGIVISFARARIPVIAVDSDKNQLATANKMITSVLEKEASKMQQSGHPWSGPKPRLTSSVKELGGVDLVIEAVFEEMSLKKQVFAELSAVCKPEAFLCTNTSALDVDEIASSTDRPHLVIGTHFFSPAHVMKLLEVIPSQYSSPTTIATVMNLSKKIKKIGVVVGNCFGFVGNRMLNPYYNQAYFLLEEGSKPEEVDQVLEEFGFKMGPFRVSDLAGLDVGWKSRKGQGLTGPTLLPGTPARKRGNRRYCPIPDVLCELGRFGQKTGKGWYQYDKPLGRIHKPDPWLSKFLSRYRKTHHIEPRTISQDEILERCLYSLINEAFRILGEGIAASPEHIDVVYLHGYGWPRHKGGPMFYASTVGLPTVLEKLQKYYRQNPDIPQLEPSDYLKKLASQGNPPLKEWQSLAGSPSSKL
partner: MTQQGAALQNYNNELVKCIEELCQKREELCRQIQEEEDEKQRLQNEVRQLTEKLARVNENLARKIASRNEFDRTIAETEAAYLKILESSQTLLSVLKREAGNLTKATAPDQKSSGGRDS

Variants of: B1
Settings: with tnap3_human TNFAIP3, P21580

effect of a mutation on the interaction | Variant
with no effect | T134A
with no effect | V206I
with no effect | A264T

Variants of: B2
Settings: with goga2_human GOLGA2, Q08379

effect of a mutation on the interaction | Variant
with no effect | A15T
with no effect | A16V
disrupting interaction strength | R118Q

Variants of: B3
Settings: with depp1_human DEPP1, Q9NTK1

effect of a mutation on the interaction | Variant
disrupting interaction strength | I277T

Variants of: B4
Settings: with ush1c_human USH1C

effect of a mutation on the interaction | Variant
with no effect | L16V
with no effect | L48P
with no effect | E393D
with no effect | L420V

Variants of: B5
Settings: with ssna1_human SSNA1, O43805

effect of a mutation on the interaction | Variant
with no effect | Q685K
